# Results taken from patent publication US20210246218A1 (LYVGEN BIOPHARMA SUZHOU, published 2021).
# Values joined by “and” are separate entries in the source; they are usually repeats but may differ in a detail not shown here. Equal entries are not always repeated.
# T1: Ly051
# T1 chain: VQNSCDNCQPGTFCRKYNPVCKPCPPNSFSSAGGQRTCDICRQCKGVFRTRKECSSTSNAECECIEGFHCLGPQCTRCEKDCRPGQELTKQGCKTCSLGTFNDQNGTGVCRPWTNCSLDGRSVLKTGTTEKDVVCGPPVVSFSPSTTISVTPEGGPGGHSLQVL
# T2: Ly049
# T2 chain: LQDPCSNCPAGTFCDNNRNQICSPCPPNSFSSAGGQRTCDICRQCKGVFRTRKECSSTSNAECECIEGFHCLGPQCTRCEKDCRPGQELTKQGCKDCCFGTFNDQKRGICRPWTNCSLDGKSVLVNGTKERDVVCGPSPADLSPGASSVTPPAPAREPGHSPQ
# T3: Ly048
# T3 chain: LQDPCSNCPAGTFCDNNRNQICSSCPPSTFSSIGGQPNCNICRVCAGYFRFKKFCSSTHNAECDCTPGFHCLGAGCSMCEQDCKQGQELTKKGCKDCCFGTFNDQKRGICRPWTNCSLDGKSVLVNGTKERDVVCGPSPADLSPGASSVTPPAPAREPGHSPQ
# Legend:
# [1] = target: T1, Ly051; test: ELISA, CD137 protein coated, clone 3712 titrated; flat curve, fit marked ~ (see non_binding)
# Description: (§1) For the data shown in FIGS. 16C-D, chimeric CD137 receptor protein samples were diluted in DPBS to 5 μg/mL and then coated onto an ELISA plate (Corning, Catalog number: 9018, high binding) at 50 μL (0.25 μg) per well, and incubated at 4° C. overnight. The plate was decanted and washed once; assay diluent was added at 200 μL/well. After a 1-hour incubation at room temperature, the plate was washed with PBST one time. […] The plate was incubated 1 hour at room temperature and then washed three times with PBST. Goat anti-human IgG-H+L HRP-conjugated at 1:100,000 dilution or goat anti-mouse IgG (H+L) secondary antibody, HRP, 10 at 1:50,000 dilution was added to the plate at 100 μL/well. The plate was incubated 1 hour at room temperature followed by washing with PBST four times. The TMB substrate solution was added 100 μL/well. The color was permitted to develop for 15 minutes and then 100 μL/well 2N H2SO4 was added to terminate the reaction. Absorbance at 450 nm and 620 nm was determined by a Tecan F200 Pro reader.
# [2] = target: T2, Ly049; test: as above
# Description: as §1
# [3] = target: T4, recombinant human CD137 receptor protein (human, UniProt Q07011 24-186); test: ELISA, human CD137 protein coated; average, n=6
# T4 construct: Coated on ELISA plates; also called recombinant human CD137 protein
# Description: The human or cynomolgus monkey CD137 receptor protein was diluted in DPBS to 1 μg/mL, and then coated onto an ELISA plate (Corning, Catalog number: 9018, high binding) with a volume of 100 μL (0.1 μg) or 50 μL (0.05 μg) per well, and incubated at 4° C. overnight. The plate was decanted and washed once; assay diluent was added 200 μL/well. After a one-hour incubation at room temperature, the plate was washed with PBST one time. […] The plate was incubated one hour at room temperature and then washed three times with PBST. Goat anti-human IgG-H+L HRP conjugated at 1:100,000 dilution was added to the plate at 100 μL/well. The plate was then incubated one hour at room temperature followed by washing with PBST four times. The TMB substrate solution was added at 100 μL/well. The color was allowed to develop for 15 minutes, and was stopped with 100 μL/well 2N H₂SO₄. Absorbance at 450 nm and 620 nm was determined by a Tecan F200 Pro reader.
# Graphpad 7.0, “[Agonist] vs. response—Variable slope (four parameters)” was used to plot the binding data and calculate binding EC₅₀ values.
# [4] = target: T4, recombinant human CD137 receptor protein; test: ELISA, huCD137 coated, clone 3712 titrated; full sigmoid, plateau about 1.5
# Description: as §1
# Target sequence in this assay (Q07011 24-186 limits assumed): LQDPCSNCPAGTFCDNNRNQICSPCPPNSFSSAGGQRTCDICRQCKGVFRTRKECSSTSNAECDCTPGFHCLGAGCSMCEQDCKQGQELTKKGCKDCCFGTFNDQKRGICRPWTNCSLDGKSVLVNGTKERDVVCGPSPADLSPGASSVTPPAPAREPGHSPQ
# [5] = target: T5, human CD137 on cells (human, UniProt Q07011 24-255); test: flow cytometry on CHO cells over-expressing human CD137; average, n=6
# T5 construct: whole, on cells; also called CHO-human CD137; CHO cells over-expressing human CD137
# T5 sequence (Q07011 24-255): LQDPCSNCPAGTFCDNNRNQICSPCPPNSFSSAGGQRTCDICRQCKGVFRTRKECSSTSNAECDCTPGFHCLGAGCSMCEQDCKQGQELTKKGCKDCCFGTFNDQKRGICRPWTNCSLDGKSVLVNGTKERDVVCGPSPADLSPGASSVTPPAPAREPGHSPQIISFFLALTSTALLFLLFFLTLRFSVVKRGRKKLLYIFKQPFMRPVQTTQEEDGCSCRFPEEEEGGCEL
# Description: CHO cells over-expressing human or cynomolgus monkey CD137 and CHO parental cells were harvested by centrifugation at 1000 g for 3 minutes. The cells were resuspended in ice cold assay buffer at 2*10\hat{ }6/mL and transferred to 96-well V-bottom plate with 100 μL/well. […] The plate was mixed and incubated in the dark for 2 hours at 4° C. The cells were washed 3 times by centrifugation at 1000 g for 3 min and resuspended in ice cold assay buffer containing goat F(ab′)₂ anti-human IgG-Fc (PE), 100 μL/well. The plate was incubated in the dark for another 1 hour at 4° C. The cells were washed 2 times by centrifugation at 1000 g for 3 min and resuspended in ice cold assay buffer containing 2% PFA. The cells were then subjected to the flow cytometer immediately.
# Mean fluorescence intensity (MFI) was calculated from the total cell population in the FCM experiments. Graphpad 7.0, “[Agonist] vs. response—Variable slope (four parameters)” was used to plot the binding MFI in dose response and to calculate FCM binding EC₅₀ values.
# [6] = target: T3, Ly048; test: ELISA, clone 3712-IgG1v coated, CD137 protein titrated (EC50 is a concentration of the CD137 protein); curve only begins to rise: about 0.63 at 100000 ng/mL, no plateau, the fitted EC50 lies beyond the range tested
# Description: The plate was decanted and washed once; assay diluent was added 200 μL/well. After one-hour incubation at room temperature, the plate was washed with PBST one time. CD137 receptor human/mouse chimeras were diluted in assay diluent to 100 or 10 μg/mL, and then a 4-fold serial dilution in assay diluent for 11 points to final concentrations of 100000, 25000, 6250, 1562.5, 390.63, 97.66, 24.41, 6.10, 1.53, 0.38 and 0.095 ng/mL or 10000, 2500, 625, 156.25, 39.06, 9.77, 2.44, 0.61, 0.15, 0.038 and 0.0095 ng/mL. The diluted CD137 receptor was added to the assay plate, 50 μL/well, in duplicate. The plate was incubated one hour at room temperature and then washed three times with PBST. Goat anti-human IgG-H+L HRP conjugated at 1:100,000 20 dilution was added to the plate at 100 μL/well. The plate was then incubated one hour at room temperature followed by washing with PBST four times. The TMB substrate solution was added at 100 μL/well. The color was allowed to develop for 15 minutes, and was stopped with 100 μL/well 2N H2SO4. Absorbance at 450 nm and 620 nm was determined by a Tecan F200 Pro reader.
binder,measurement,setting,value
"Clone 3712-IgG1v (IgG1v/kappa) (antibody, copies: 2 + 2) heavy: QVQLVQSGAEVKKPGASVKVSCKASGYTFAGFEMHWVRQAPGQGLEWMGAIDPKTGGTDYNQKFKDRVTMTRDTSISTAYMELSRLRSDDTAVYYCARDLGYFDVWGQGTLVTVSSASTKGPSVFPLAPSSKSTSGGTAALGCLVKDYFPEPVTVSWNSGALTSGVHTFPAVLQSSGLYSLSSVVTVPSSSLGTQTYICNVNHKPSNTKVDKKVEPKSCDKTHTCPPCPAPELLGPSVFLFPPKPKDTLMISRTPEVTCVVVDVEHEDPEVKFNWYVDGVEVHNAKTKPREEQYNSTYRVVSVLTVLHQDWLNGKEYKCKVSNKALPAPIEKTISKAKGQPREPQVYTLPPSREEMTKNQVSLTCLVKGFYPSDIAVEWESNGQPENNYKTTPPVLDSDGSFFLYSKLTVDKSRWQQGNVFSCSVMHEALHNHYTQKSLSLSPGK light: DIQMTQSPSSLSASVGDRVTITCRASQDIRSNLNWYQQKPGGAVKLLIYYTSRLHSGVPSRFSGSGSGTDYTLTISSLQPEDFATYFCQQSEKLPRTFGGGTKVEIRRTVAAPSVFIFPPSDEQLKSGTASVVCLLNNFYPREAKVQWKVDNALQSGNSQESVTEQDSKDSTYSLSSTLTLSKADYEKHKVYACEVTHQGLSSPVTKSFNRGEC",EC50,[1],~0.00101 mg/L
same,EC50,[2],~0.903 mg/L
same,EC50,[3],0.37 nM and 0.0529 µg/mL
same,EC50,[4],0.0495 mg/L
same,EC50,[5],0.35 nM and 0.0497 µg/mL
same,EC50,[6],486 mg/L
